B1: TPR t1 (parent)
chain: GACCAAUCUGCCCUCAGAGCUCGAGAACAUCUUCGGAUGCAGAGGAGGCAGGCUUCGGUGGCGCGAUAGCGCCAACGUCCUCAACCUCCAAUGCAUCCCACCACAUGAUGAUGCCUGAAGAGCCUUGGUUUUUUG

Variants of: B1
Assay: polymerase ribozyme fitness, log enrichment relative to wild type (log ratio); higher = more active; in vitro selection for triplet polymerase activity
In short: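 Mutant libraries of both subunits of a heterodimeric triplet polymerase ribozyme were PCR-built, transcribed, and selected once in triplicate, with frozen incubation at −7 °C and capture of gel-excised extended constructs on streptavidin beads before RT-PCR. Illumina sequencing of input and output libraries was filtered to genotypes with ≥10 input reads and ≥1 read per output. Fitness is the logarithm of genotype enrichment over wild-type enrichment, using inverse-variance-weighted replicate averages. The logarithm is base 2.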

| Variant | polymerase ribozyme fitness (log ratio) |
| --- | --- |
| GACCAGUCUGCCCUCAGAGCUCGAGAACAUCUUCGGAUGCAGAGGAGGCAGGCUUCGGUGGCGCGAUAGCGGCAACGUCCUCAACCUUCAAUGCAUCCCACCACAUGAUGAUGCCUGAAGAGACUUGGUUUUUUG [A6G C72G C88U C123A] | 0.738 |
| GACCAGUCUGCCCUCAGAGCUCGAGAACAUCUUCGGAUGCAGAGGAGGCAGGCUUCGGUGGUGCGAUAGCGCCAACGUCCUCAACCUCCAAUGCAUCCCACCACAUGAUCAUGCCUGAAGAGCCUUGGUUUUUUG [A6G C62U G110C] | -4.63 |
| GACCAGUCUGCCUUCAGAGCUCGAGAACAUCUUCGGAUGCAGAGGAGGCAUGCUUCGGUGGCGCGAUAGCGCCAACGUCCUUAACCUCCAAUGAAUCCCACCACAUGAUGGUGCCUGAAGAGCCUUGGUUUUUUG [A6G C13U G51U C82U C94A A111G] | -3.66 |
| GACCAGUCUGCCGUCAGAGCUCGAGAACAUCUUCGGAUGCAGAGGAAGCAGGCUUAGGUGGCGCGAUAGCGCCAACGUCUUCAACCUCCAAUGCAUCCCACCACAUGAUGAUGCCUGAAGAGCCUUGGUUUUUUG [A6G C13G G47A C56A C80U] | -2.43 |
| GACCAGUCUGCCCUCAGAGCUCGAGAACAUCUUCGGAUGCAGAGGAGGCAGGCUUCGGUGGCGCGAUAGCGCCAAAGUCCUCAACCUGCAAUGCAUCCCACCACAUGAUGAUGCCUGAAGUGCCUUGAUUUUUUG [A6G C76A C88G A121U G128A] | -1.67 |
| GACCAGUCUGCACUCAGAGCUCGAGAACAUCUUCGGAUGCAGAGGUGGCAGGAUUAGGUGGCGCGAUAGCGCCAACGUCCUCAACCUCCAAUGCAUCCCACCACAUGAUGAUGCCUGAAGAGCCUUGGUUUUUUG [A6G C12A A46U C53A C56A] | -1.28 |
| GACCAGUCUGCCCUCAGAGCUCGAGAACAUCUUCGGAUGCAGAGGAGGCAGGCUUGGGUGGCGCGAUAGCGCCAACGUCCUCAACCUCCAAUGCAUCCCACCUCAUGAUGAUGCCUGAAGAGCCUUGGUUUUUUG [A6G C56G A103U] | -4.63 |
| GACCAGUCUGCCCUCAGAGCUCGAGAACAUCUUCGGAUGCAGAGGAGGCAGGCUUCGGUGGCGCGAUAGCGCCAACGUCCUCAACCUCCAAUGCCUCCCACCACAUGAUGAUGCCUGAAGAGCCUUGGUUUUUUG [A6G A95C] | -1.16 |
| GACCAGUCUGCCCUCAGAGCUCGAGAACAUCUUCGGAUGCAGAGGAGGCAGGCUUCGGUGGCGCGAUAGCGCUAACGUCCUCAACCUCCAAUGCAUCCCACCACAUGAUGAUGCCUCAAGAGCCUUGGUUUUUUG [A6G C73U G117C] | -2.3 |
| GACCAGUCUGCCCUCAGAGCUCGAGAAUAUCUUCGGAUGCAGAGGAGGCAGGCUUCGGUGGCGCGAUAGCGCCAACGUCCUCAACCUCCAAUGCAUCCCACCACAUGAUGAUGCCUGAAGAGCCUUGGUUUUUUG [A6G C28U] | -0.918 |
| GACCAGUCUGCCCUCAGAGCUCGAGAACAUCUUCGGAUGCAGAGGUGUCAGGCUUCGGUGGCGCGAUAGCGCCAACGUCCUCAACCUCCAAUGCAUCCCAUCACAUGAUGAUGCCCGAAGAUCCUUGGUUUUUUG [A6G A46U G48U C101U U116C G122U] | -5.6 |
| GACCAGUCUGACCUCAGAGCUCGAGAACAUCUUCGGAUGCAGAGGAGGCAGGCUUCGGUGGCGCGAUAGCGCCAACGUCCUCAACCUCCAAGGCAUCCCACCACAUGAUGAUGCCUGAAGAGCCUUGGUUUUUUG [A6G C11A U92G] | -4.04 |
| GACCAGUCUGCCCUUAGAGCUCGAGAACAUCUUCGGAUGCAGAGGAGGCAGGCUUCGGUGGCGCGAUAGCGCCAACGUCCUCAACCUCUAAUGCAACCCACCACAUGAUGAUGCCUGAAGAGCCUUGGUUUUUUG [A6G C15U C89U U96A] | -0.964 |
| GACCAGUCUGCCCUCAGAGCUCGAGAACAUCUUCGGAUGCAGAGGAGGCAGGCUUCGGUGGCGCGAUAGCGCCAACGUCCUCUACCUCCAAUGCAUCCCACCACAUGAUGAUGCCUGAAGAGCCUUGGUUUUUUG [A6G A83U] | -0.371 |
| GACCAGUCUGUCCUCAGAGCUCGAGAACAUCUUCGGAUGCAGAGGAGGCAGGCUUCGGUGGCGCGAUAGCGCCAACGUCCUCAACCUCCAAUGCAUCACACCACAUGAUGAUGCCUGAAGAGCCUUGGUUUUUUG [A6G C11U C98A] | -5.05 |
| GACCAGUCUGCUCUCAGAGCUUGAGAACAUCUUCGGAUGCAGAGGAGGCGGGCUUAGGUGGCGCGAUAGCGCCAACGUCCUCAACCUCCAAUGCAUCCCACCACAUGAUGAUGCCUGAAGAGCCUUGGUUUUUUG [A6G C12U C22U A50G C56A] | -4.54 |
| GACCAGUCUGCCCUCAGAGCUCGAGAACAUCUUCGGAUGCAGAGGAGGCAGGCUUCGGUGGCGCGAUAGCGUCAACGUCCUCAACCUCCAAUACAUCCCACCACAUGAUGAUGCCUGAAGAGCCUUGGUUUUUUG [A6G C72U G93A] | -0.751 |
| GACCAGUCUGCCCUCAGAGCUCGAGAACAUCUUCGGAUGCAGAGGAGGCAGGCUUCGGUGGCGCGAUAGCGCCAACGUCCUGAACCACCUAUGCAUCCCACCACAUGAUGAUGCCUGAAGAGCCUUGGUUUUUUG [A6G C82G U87A A90U] | -2.92 |
| GACCAGUCUGCCCUCAGAGCUCGAGAACAUCUUCGGAUGCAGAGGAGGCAGGCUUCGGUGGCGCGAUAGCGUCAACGUCCUCAACCUCCAAUGCAUCCCACCACAUGAUGAGGCCUGAAGAGCCUUGGUUUUUUG [A6G C72U U112G] | 0.809 |
| GACCAGUCUGCACUCAGAGCUCGAGAACAUCUUCGGAUGCAGAGGAGGCAGGCUUCGGUGGCGCGAUAGCGCCAACGUCUUCAACCUCCAAUGCAUCCCACCACAUGAUGAUUCCUGAAGAGCCUUGGUUUUUUG [A6G C12A C80U G113U] | -3.95 |
| GACCAGUCUGCCCUCAGAGCUCGAGAACAUCUUCGGAUGCAGAGGAGGCAGGCUUCGGUGGCGCGAUAGCGCCAACGUGCUCAACCUCCAAUGCAUCCCACCAAAUGAUGAUGCCUGAAGAGCCUUGGUUUUUUG [A6G C79G C104A] | -4.14 |

| Variant | polymerase ribozyme fitness (log ratio) |
| --- | --- |
| GACCAGUAUGCCCUCAGAGCUCGAGGACAUCUUCGGAUGCAGAGGAGGCAGGCUUCGGUGGCGCGAUAGCGCCAACGUCCUCAUCCUCCAAUGCAUCCAACCACAUGAUGAUGCCUGAAGAGCCUUGGUUUUUUG [A6G C8A A26G A84U C99A] | -5.28 |
| GACCAGUCUGCCCUCAGAGCUUGAGAACAUCUUCGGAUGCAGACGAGGCAGGCUUCGGUGGCGCGAUAGCGCCAACGUCCUCAACCUUCAAUGCAUCCCACCACAUGAUGAUGCCUGAAGAGCCUUGGUUUUUUG [A6G C22U G44C C88U] | -6.05 |
| GACCAGUCUGCGCUCAGAGCUCGAGAUCAUCUUCGGAUGCAGAGGAGGCAGGCUUCGGUGGCGCGAUAGCGCCAACGUCCUCAACCUCCAAUGCAUCCCACCACAUGAUGAUUCCUGAAGAGCCAUGGUUUUUUG [A6G C12G A27U G113U U125A] | -7.04 |
| GACCAGUCUGCCCUCAGAGCUCGAGAACAUCUUCGGAUGCAGAGGAGGCAGGCUUCGGUGGCGCGAUAGCGCCAACGUCCUCAACCUCCAAUGCAUCGCACCACAUGAUGAUGCCUGAAGAGCCUUGGUUUUUUG [A6G C98G] | -6.34 |
| GACCAGUCUGCCCUCAGAGCUCGAGAACAUCUUCGGAUGCAGAGGAGGCGGGCUUCGGUGGCGCGAUAGCGCCAACGUCCUCAACCUCCAAUGCAUCCCACCACAUGAUGACGCCUGAAGAGCCUUGGUUUUUUG [A6G A50G U112C] | 1.56 |
| GACCAGUCUGCUCUCAGAGCUCGAGAACAUCUUCGGAUGCAGAGGAGGCUGGCGUCGGUGGCGCGAUAGCGCCAACGUCCUCAACCUCCAAUGCAUCCCCCCACAUGAUGAUGCCUGAAGAGCCUUGGUUUUUUG [A6G C12U A50U U54G A100C] | -6.08 |
| GACCAGUCUGCACUCAGAGCUCGAGAACAUCUUCGGAUGCAGAGGAGGCAGGCUUAGGUGGCGCGAUAGCGACAACGUCCUCAACCUCCAAUGCAUCCCACCACAUGAUGAUGCCUGAAGAGCCUUGGUUUUUUG [A6G C12A C56A C72A] | -1.87 |
| GACCAGUCUGCCUUCAGAGCUCGAGAACAUCUUCGGAUGCAGAGGAGGCAGGCUUCGGUGGCGCGAUAGCGCCAACGUCCUCAACCUCCAAUGCAUCUCACCACAUGAUGAUGCCUGAUGAGCCUUGGUUUUUUG [A6G C13U C98U A119U] | -2.09 |
| GACCAGUCUGCACUCAGAGCUCCAGAACAUCUUCGGAUGCAGAGGAGGCAGGCUUCGGUGGCGCGGUAGCGCCAACGUCCUCAACCUCCAAUGCAUCCCACCACAUGAUGAUGUCUGAAGAGCCUUGAUUUUUUG [A6G C12A G23C A66G C114U G128A] | -5.09 |
| GACCAGUCUGCCUUCAGAGCUCGAGAACAUCUUCGGAUGCAGAGGAGGCAGGCUUCGGUGGCGCGAUAGCGUCAACGUCCUCAACCUCCAAUGCAUCCCACUACAUGAUGAUGCCUGAAGAACCUUGGUUUUUUG [A6G C13U C72U C102U G122A] | -2.6 |
| GACCAGUCUGCCCUCAGAGCUCGAGAACAUCUUCGGAUGCAGAGGAGGCAGGCUUCGGUGGCGCGAUAGCGUCAACGUCCUCAACCUCCAAUGCAUUCCACCACAUGAUGAUGCCUGAAGAGCCUUGGUUUUUUG [A6G C72U C97U] | -1.35 |
| GACCAGUCUGCCCUCAGAGCUCGAGAACAUCUUCGGAUGCAGAGGAGGCAGGCUUCGGUGGCGCGAUAGUGCCAACGUCCUCAACCUCCAAUGCAUCCCACCACAUGAUGAUGCCUGAAGAGCCUUGGUUUUUUG [A6G C70U] | -1.29 |
| GACCAGUCUGCUCUCAGAGCUCGAGAACACCUUCGGAUGCAGAGGAGGCAGGCUUCGGUGGCGCGAUAGCGCCAACGUCCUCAACCUCCAAUGCAUCCCACCACAUGGUGAUGCCUGAAGAGCCUUGGUUUUUUG [A6G C12U U30C A108G] | 0.259 |
| GACCAGUCUGCCCUCAGAGCUCGAGAACAUCUUCGGAUGCAGAGGAGGUAGGCUUCGGUGGCGCGAUAUCGCCAACGUCCUCAACCUCCAAUGCAUCCCACCACAUGAUGAUGCCUGAAGAGCCUUGGUUUUUUG [A6G C49U G69U] | -0.168 |
| GACCAGUUUGCCCUCAGAGCUCGAGAACAUCUUCGGAUGCAGAGGAGGGAGGCUUCGGUGGCGCGAUAGAGCCAACGCCCUCAACCUCCAAUGCAUCCCACCACAUGAUGAUGCCUGAAGAGCCUUGGUUUUUUG [A6G C8U C49G C70A U78C] | -3.15 |
| GACCAGUCUGCCCUCAGAGCUCGAGAACAUCUUCGGAUGCAGAGGAGGCAGGCUUCGGUGGCGCGAUAGCGCAAACGUCCUCAACCUCCAAUGCAUCCCACCACAUGAUGAAGCCUGAAUAGCCUUGGUGUUUUG [A6G C73A U112A G120U U130G] | 0.876 |
| GACCAGUCUGCCCUCAGAGCUCGAGAACAUCUUUGGAUGCAGAGGAGGCAGGCUUCGGUUGCGCGAUAGCGUCAACGUCCUCAACCUCCAAUGCAUCCCACCACAUGAUGAUGCCAGAAGAGCAUUGGUUUUUUG [A6G C34U G60U C72U U116A C124A] | -4.04 |
| GACCAGUCUGCCCUCAGAGCUCGAGAACAUCUUCGGAUGCAGAGGAGGCAGGCUUCGGUGGCGCGAUAGCGCCAACGUCCUCAACCUCCACUGCAUCCCACCACAUGAUGAUGCCUGAAGAGCCUUGGUUUUUUG [A6G A91C] | -1.54 |
| GACCAGUCUGCCCUCAGAGCUCGAGAACAUCUUCGGAUGCAGAGGAGGCAGGCUUCGGUGGCGCGAUAGCGCCAACGUCCUCAACCUCCUAUGCAUCCCACCACAUGAUGAUGCCUGAAGAGCCUUGGUUUUUUG [A6G A90U] | -0.939 |
| GACCAGUCUGCCCUCAGAGCUCGAGAACAUCUUCGGAUGCAGAGGAGGGAGGCUUGGGUGGCGCGAUAGCGCCAACGUCCGCAACCUCCAAUGCAUCCCACCACAUGAUGAUGUCUGAAGAGCCUUGGUUUCUUG [A6G C49G C56G U81G C114U U132C] | -5.17 |
| GACCAGUCUGCCCUCAGAGCUCGAGAACAUCUUCGGAUGCAGAGGAGGCAGGCUUCGGUGGCGCGAUAGCGGCAACGUCCUCAACCUCCAAUGCAUCCCACCACAUGAUGAUGCCUUAAGUGCCUUAGUUUUUUG [A6G C72G G117U A121U G127A] | -2.18 |
